Experimental data: patent US20040197306A1 (SCHERING, published 2004)

Experiments:
Assay in all cases: FACS, FLAG-tagged ligand supernatant on Baf/3 cells with chimeric receptor, anti-FLAG M2 detection
[1] = biological target: T1, mouse IL-17RD (DCRS8) extracellular domain fused to transmembrane and intracellular domains of murine GCSFR, … (mouse, UniProt Q8JZL1 17-299; P40223 627-837, limits assumed)
T1 construct: extracellular domain;domain: transmembrane and intracellular domains; Chimeric receptor stably expressed on Baf/3 cells; also called MuIL-17RX-MuGCSFR (X = D)
T1 sequence (looked up): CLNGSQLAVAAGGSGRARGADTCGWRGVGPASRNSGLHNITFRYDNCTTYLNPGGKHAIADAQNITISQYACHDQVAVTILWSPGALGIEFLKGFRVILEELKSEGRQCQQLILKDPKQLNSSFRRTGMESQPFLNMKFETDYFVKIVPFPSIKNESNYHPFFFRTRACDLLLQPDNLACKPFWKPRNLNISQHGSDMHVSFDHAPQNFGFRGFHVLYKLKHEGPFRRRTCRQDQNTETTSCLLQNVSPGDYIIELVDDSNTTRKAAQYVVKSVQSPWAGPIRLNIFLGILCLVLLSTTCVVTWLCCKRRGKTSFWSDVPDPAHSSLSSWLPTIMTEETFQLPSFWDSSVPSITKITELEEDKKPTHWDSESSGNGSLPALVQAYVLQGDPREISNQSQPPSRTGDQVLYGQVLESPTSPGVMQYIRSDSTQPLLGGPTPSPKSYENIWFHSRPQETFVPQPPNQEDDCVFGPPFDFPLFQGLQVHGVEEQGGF
Description: (§1) FACS analysis was used to determine specific binding of the various ligands to the various receptors. Baf/3 or Baf/3 mouse IL17RX-mouse GCSFR cells were incubated with ligand containing cell supernatants for one hour on ice. The cells were then washed once in FACS buffer and resuspended in 10 μg/ml ANTI-FLAG® M2 antibody (Sigma, St. Louis, Mo.) for one hour on ice. Cells were washed once in FACS buffer and resuspended in 10 μl/ml anti-mouse IgG-PE (Jackson ImmunoResearch, West Grove, Pa.) for 30 minutes on ice. Cells were washed once in FACS buffer and resuspended in FACS buffer and 1 μl/ml propidium iodide (Roche Applied Science, Indianapolis, Ind.) and analyzed on a FACS Calibur (Becton Dickinson, San Jose, Calif.). The chimeric receptor cell based assay was used to visualize the binding of each of the IL-17 family ligands to the receptors by FACS.

[2] = biological target: T2, mouse IL-17RC (DCRS7) extracellular domain fused to transmembrane and intracellular domains of murine GCSFR, … (mouse, UniProt P40223 627-837, limits assumed)
T2 construct: domain: transmembrane and intracellular domains; Chimeric receptor stably expressed on Baf/3 cells; also called MuIL-17RX-MuGCSFR (X = C)
T2 sequence: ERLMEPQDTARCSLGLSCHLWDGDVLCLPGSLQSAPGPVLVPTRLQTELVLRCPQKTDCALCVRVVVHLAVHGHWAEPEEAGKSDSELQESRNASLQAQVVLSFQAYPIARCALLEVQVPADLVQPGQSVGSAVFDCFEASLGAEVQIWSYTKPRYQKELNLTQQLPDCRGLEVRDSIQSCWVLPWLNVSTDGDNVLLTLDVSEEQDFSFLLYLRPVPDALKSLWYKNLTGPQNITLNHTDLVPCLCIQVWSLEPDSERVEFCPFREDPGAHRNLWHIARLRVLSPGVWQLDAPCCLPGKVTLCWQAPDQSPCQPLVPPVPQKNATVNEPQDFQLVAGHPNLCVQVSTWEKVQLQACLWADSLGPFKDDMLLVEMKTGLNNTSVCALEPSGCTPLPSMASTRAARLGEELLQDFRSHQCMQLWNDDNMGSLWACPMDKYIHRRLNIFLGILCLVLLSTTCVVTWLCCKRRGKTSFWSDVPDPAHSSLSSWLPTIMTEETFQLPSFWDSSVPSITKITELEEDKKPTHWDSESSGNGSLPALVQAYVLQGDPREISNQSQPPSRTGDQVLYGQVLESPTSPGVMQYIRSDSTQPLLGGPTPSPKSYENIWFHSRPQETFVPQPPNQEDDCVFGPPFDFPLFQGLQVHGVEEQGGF
Description: as §1

[3] = biological target: T3, mouse IL-17RA extracellular domain fused to transmembrane and intracellular domains of murine GCSFR, on Baf/3 … (mouse, UniProt Q60943 32-322; P40223 627-837, limits assumed)
T3 construct: extracellular domain;domain: transmembrane and intracellular domains; Chimeric receptor stably expressed on Baf/3 cells; also called MuIL-17RX-MuGCSFR (X = A)
Description: as §1

- binding result [1]: no binding
- binding result [2]: no binding
- binding result [3]: no binding
B1: FLAG-tagged IL-17C (ligand)
chain: HHDPSLRGHPHSHGTPHCYSAEELPLGQAPPHLLARGAKWGQALPVALVSSLEAASHRGRHERPSATTQCPVLRPEEVLEADTHQRSISPWRYRVDTDEDRYPQKLAFAECLCRGCIDARTGRETAALNSVRLLQSLLVLRRRPCSRDGSGLPTPGAFAFHTEFIHVPVGCTCVLPRSV
notes: Used as supernatant of transfected 293T cells; also called IL-71; not shown: FLAG peptide tag at the N-terminus (after the pre-protrypsin leader)
